{
  "source": "paper PMC2133023",
  "target": "GAL4 DNA-binding domain fusion of the neuroglian^167 cytoplasmic domain with Y1234F (Drosophila)",
  "experiment": "two-hybrid",
  "data": [
    {"substance": "GAL4 activation domain–Drosophila ankyrin fusion protein (from UniProt Q24241 1-1549) (natural protein)", "values": [
      {"measurement": "reduction of binding against wild type (β-galactosidase)", "value": 50, "unit": "%"}
    ]}
  ]
}
